Laboratory results from patent US20140038900A1 (INSTITUT NATIONAL DE LA SANTE ET DE LA RECHERCHE MEDICALE …, published 2014).

Target: heat-shock protein 70 (HSP70) (UniProt P0DMV8 1-641)
Assay: co-immunoprecipitation and Western blot, HCT116 cells
Experimental: Transfected cells were first lysed in lysis buffer (50 mM Hepes (pH 7.6), 150 mM NaCl, 5 mM EDTA and 0.1% NP40) followed by immunoprecipitation using GFP-tag antibody. Immunoprecipitates were separated in a 10% SDS-polyacrylamide gel and then transferred to PVDF membranes using a wet transfer apparatus (BioRad, Hercules, Calif., USA). Membranes were first probed overnight using primary antibodies: HA-tag antibody was from Covance (Eurogentec, Angers, France), 14-3-3 from Santa-Cruz (TebuBio, Le Perray en Yvelines, France) and GFP-tag antibody from Millipore (Molsheim, France).

Sequence of heat-shock protein 70 (HSP70) (P0DMV8 whole entry): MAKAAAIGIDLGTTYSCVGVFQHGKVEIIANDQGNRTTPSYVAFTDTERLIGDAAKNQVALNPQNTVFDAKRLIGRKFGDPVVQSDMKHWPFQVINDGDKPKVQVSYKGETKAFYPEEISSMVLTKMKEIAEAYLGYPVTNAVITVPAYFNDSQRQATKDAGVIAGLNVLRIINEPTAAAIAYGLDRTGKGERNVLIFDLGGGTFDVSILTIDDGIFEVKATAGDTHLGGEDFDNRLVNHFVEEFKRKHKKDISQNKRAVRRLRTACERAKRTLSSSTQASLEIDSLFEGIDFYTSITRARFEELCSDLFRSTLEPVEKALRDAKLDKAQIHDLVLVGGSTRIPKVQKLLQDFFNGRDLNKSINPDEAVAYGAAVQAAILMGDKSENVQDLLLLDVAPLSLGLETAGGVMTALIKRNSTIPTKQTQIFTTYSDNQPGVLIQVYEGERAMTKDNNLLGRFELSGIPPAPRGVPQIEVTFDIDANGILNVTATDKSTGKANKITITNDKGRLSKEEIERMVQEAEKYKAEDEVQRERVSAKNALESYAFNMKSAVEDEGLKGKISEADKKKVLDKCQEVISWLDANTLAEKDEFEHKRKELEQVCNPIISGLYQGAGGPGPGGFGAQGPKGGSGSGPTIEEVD

binding result: no binding
B1: mutated HSP110 lacking exon 9 (HSP110delE9), GFP-tagged (other)
chain: MSVVGLDVGSQSCYIAVARAGGIETIANEFSDRCTPSVISFGSKNRTIGVAAKNQQITHANNTVSNFKRFHGRAFNDPFIQKEKENLSYDLVPLKNGGVGIKVMYMGEEHLFSVEQITAMLLTKLKETAENSLKKPVTDCVISVPSFFTDAERRSVLDAAQIVGLNCLRLMNDMTAVALNYGIYKQDLPSLDEKPRIVVFVDMGHSAFQVSACAFNKGKLKVLGTAFDPFLGGKNFDEKLVEHFCAEFKTKYKLDAKSKIRALLRLYQECEKLKKLMSSNSTDLPLNIECFMNDKDVSGKMNRSQFEELCAELLQKIEVPLYSLLEQTHLKVEDVSAVEIVGGATRIPAVKERIAKFFGKDISTTLNADEAVARGCALQC
notes: Made by PCR from the GFP-HSP110 vector and cloned into the EGFp C2 vector; also called HSP110deIE9; HSP110ΔE9; not shown: GFP tag from the EGFp C2 vector into which the mutant HSP110 cDNA was cloned
